Results reported in patent EP1482987B1 (Bracco Suisse SA, dated 2014).
Values belong to the binder of their own block, whether it stands above or below them. *1 amine or outer side, *2 acyl side, *3 side chain or, on linkers, in order; H or OH if unused. Bridges are numbered along the chain shown (N, C = ends). Roman numbers before positions name the chains, in order. Primed or numbered codes have the meaning given here. Where no end group is shown, it is not given here. Side-chain parts run from the residue outwards. The star is where a group is joined. ivDde′ = (4,4-dimethyl-2,6-dioxocyclohex-1-ylidene)-3-methylbutyl protecting group, CC(C)CC(=C1C(=O)CC(C)(C)CC1=O)*; Biotin = O=C1N[C@H]2[C@H](CS[C@H]2CCCCC(=O)*)N1; Glutaryl = O=C(CCCC(=O)[*:2])[*:1]; AEEA = NCCOCCOCC(=O)O

Key:
[1] = target: KDR on human umbilical vein endothelial cells (HUVECs) (human, UniProt P35968 20-1356); assay: cell-based or functional assay
Soluble KDR receptor = Soluble KDR receptor (UniProt P35968 20-764, limits assumed); assay: SPR (Biacore 3000), soluble KDR on CM5
[2] = target: KDR (full-length receptor) expressed on transiently transfected 293H cells (human) (UniProt P35968); assay: competition with 300 pM 125I-VEGF on KDR-transfected 293H cells; peptide 30 µM
[3] = target: KDR (full-length receptor) expressed on transiently transfected 293H cells (human) (UniProt P35968); assay: competition with 300 pM 125I-VEGF on KDR-transfected 293H cells; peptide 0.3 µM

Chain of KDR (full-length receptor) expressed on transiently transfected 293H cells (human) (P35968 20-1356): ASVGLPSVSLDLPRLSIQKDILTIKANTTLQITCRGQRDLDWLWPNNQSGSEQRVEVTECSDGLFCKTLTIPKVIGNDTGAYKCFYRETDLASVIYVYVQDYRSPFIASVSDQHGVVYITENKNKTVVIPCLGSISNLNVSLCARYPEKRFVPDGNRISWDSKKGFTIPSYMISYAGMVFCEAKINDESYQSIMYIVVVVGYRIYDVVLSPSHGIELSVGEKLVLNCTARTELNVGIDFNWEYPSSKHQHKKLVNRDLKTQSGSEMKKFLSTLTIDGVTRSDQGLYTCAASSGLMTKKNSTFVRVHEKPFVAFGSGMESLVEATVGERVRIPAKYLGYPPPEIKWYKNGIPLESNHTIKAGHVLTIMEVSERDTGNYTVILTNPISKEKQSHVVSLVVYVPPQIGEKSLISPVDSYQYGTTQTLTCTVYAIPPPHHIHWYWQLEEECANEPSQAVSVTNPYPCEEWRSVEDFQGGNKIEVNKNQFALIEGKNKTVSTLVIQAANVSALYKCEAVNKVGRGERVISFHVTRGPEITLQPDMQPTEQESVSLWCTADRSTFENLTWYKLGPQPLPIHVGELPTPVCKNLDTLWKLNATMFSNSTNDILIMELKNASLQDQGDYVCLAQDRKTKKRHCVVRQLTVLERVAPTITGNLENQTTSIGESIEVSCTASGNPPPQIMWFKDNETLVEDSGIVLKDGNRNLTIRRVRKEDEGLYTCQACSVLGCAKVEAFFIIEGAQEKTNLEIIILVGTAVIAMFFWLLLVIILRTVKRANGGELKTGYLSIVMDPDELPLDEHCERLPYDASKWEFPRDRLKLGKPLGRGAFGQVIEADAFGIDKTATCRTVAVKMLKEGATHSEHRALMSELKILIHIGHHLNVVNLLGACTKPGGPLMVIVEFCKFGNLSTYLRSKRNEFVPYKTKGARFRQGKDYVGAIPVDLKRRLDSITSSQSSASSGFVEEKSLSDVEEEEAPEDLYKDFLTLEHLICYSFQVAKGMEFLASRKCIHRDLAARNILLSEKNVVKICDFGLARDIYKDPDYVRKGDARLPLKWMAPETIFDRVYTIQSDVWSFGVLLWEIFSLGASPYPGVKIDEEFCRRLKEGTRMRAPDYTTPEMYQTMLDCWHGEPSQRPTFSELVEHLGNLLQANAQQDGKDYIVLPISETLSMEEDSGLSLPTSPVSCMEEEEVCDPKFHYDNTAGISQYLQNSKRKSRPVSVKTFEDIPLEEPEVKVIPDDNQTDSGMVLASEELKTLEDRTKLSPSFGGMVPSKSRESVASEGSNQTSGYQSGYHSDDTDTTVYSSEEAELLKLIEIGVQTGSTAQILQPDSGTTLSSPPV
Chain of KDR on human umbilical vein endothelial cells (HUVECs) (P35968 20-1356): as above
Chain of Soluble KDR receptor (P35968 20-764 limits assumed): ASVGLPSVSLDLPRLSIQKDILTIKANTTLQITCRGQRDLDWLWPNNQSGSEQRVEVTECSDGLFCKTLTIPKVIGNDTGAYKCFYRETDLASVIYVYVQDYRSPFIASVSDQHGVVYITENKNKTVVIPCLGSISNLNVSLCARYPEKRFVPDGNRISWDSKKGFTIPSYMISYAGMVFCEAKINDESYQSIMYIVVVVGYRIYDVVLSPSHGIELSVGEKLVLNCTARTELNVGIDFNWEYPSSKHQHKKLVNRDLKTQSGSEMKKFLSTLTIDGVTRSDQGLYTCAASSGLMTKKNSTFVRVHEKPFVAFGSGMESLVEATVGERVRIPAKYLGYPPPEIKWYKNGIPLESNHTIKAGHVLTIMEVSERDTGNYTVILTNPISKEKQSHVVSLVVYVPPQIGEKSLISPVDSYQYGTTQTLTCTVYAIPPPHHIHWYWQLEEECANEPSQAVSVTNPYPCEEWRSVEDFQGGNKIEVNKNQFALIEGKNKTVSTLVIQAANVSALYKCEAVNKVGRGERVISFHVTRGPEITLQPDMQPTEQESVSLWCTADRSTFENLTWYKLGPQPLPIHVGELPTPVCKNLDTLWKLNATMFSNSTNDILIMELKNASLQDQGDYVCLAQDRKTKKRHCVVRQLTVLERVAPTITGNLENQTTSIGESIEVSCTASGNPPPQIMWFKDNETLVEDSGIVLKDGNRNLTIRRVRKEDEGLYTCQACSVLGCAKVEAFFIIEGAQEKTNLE

B1: D1 (peptide)
peptide 1: AGPTWCEDDWYYCWLFGTGGGK
peptide 2: VCWEDSWGGEVCFRYDPGGGK
modifications: linker (positions not given here) via Glutaryl; disulfide I:6-I:13, II:2-II:12; also: two chains linked by a glutaryl linker, exact groups only in a drawing
- IC50, receptor activation assay [1]: 0.5 to 1 nM

B2: P3-D (peptide)
peptide: Ac-AGWLECYAEFGHCYNFGTGGGK-NH2
modifications: disulfide 6-13
SMILES: CC(=O)N[C@@H](C)C(=O)NCC(=O)N[C@@H](Cc1c[nH]c2ccccc12)C(=O)N[C@@H](CC(C)C)C(=O)N[C@@H](CCC(=O)O)C(=O)N[C@H]1CSSC[C@@H](C(=O)N[C@@H](Cc2ccc(O)cc2)C(=O)N[C@@H](CC(N)=O)C(=O)N[C@@H](Cc2ccccc2)C(=O)NCC(=O)N[C@H](C(=O)NCC(=O)NCC(=O)NCC(=O)N[C@@H](CCCCN)C(N)=O)[C@@H](C)O)NC(=O)[C@H](Cc2c[nH]cn2)NC(=O)CNC(=O)[C@H](Cc2ccccc2)NC(=O)[C@H](CCC(=O)O)NC(=O)[C@H](C)NC(=O)[C@H](Cc2ccc(O)cc2)NC1=O
- inhibition of VEGF-induced KDR phosphorylation [1]: ≥ 50 % inhibition at 10 µM

B4: P7-E (peptide)
peptide: Ac-GDWWECK(ivDde′)REEYRNTTWCAWADPGGGK-NH2
modifications: disulfide 6-17
SMILES: CC(=O)NCC(=O)N[C@@H](CC(=O)O)C(=O)N[C@@H](Cc1c[nH]c2ccccc12)C(=O)N[C@@H](Cc1c[nH]c2ccccc12)C(=O)N[C@@H](CCC(=O)O)C(=O)N[C@H]1CSSC[C@@H](C(=O)N[C@@H](C)C(=O)N[C@@H](Cc2c[nH]c3ccccc23)C(=O)N[C@@H](C)C(=O)N[C@@H](CC(=O)O)C(=O)N2CCC[C@H]2C(=O)NCC(=O)NCC(=O)NCC(=O)N[C@@H](CCCCN)C(N)=O)NC(=O)[C@H](Cc2c[nH]c3ccccc23)NC(=O)[C@H]([C@@H](C)O)NC(=O)[C@H]([C@@H](C)O)NC(=O)[C@H](CC(N)=O)NC(=O)[C@H](CCCNC(=N)N)NC(=O)[C@H](Cc2ccc(O)cc2)NC(=O)[C@H](CCC(=O)O)NC(=O)[C@H](CCC(=O)O)NC(=O)[C@H](CCCNC(=N)N)NC(=O)[C@H](CCCCNC(CC(C)C)=C2C(=O)CC(C)(C)CC2=O)NC1=O
- inhibition of VEGF-induced KDR phosphorylation [1]: ≥ 50 % inhibition at 10 µM

Binder: GDSRVCWEDSWGGEVCFRYDP [P6]
- % inhibition of 125I-VEGF binding [2]: 96.3%
- % inhibition of 125I-VEGF binding [3]: 52.3%

Continued, values first:

- fold increase in affinity over P10 (Soluble KDR receptor): > 560 fold
B3: Head-to-head dimer (P9/P10 heterodimer) (peptide)
peptide 1: AQEPEGYAYWEVITLYHEEDGDGG
peptide 2: AQAFPRFGGDDYWIQQYLRYTDGG
modifications: bridge I:N-II:N; not fully specified (N-terminus); also: head-to-head heterodimer, N-termini joined by oxime
notes: also called H-H dimer

- inhibition of VEGF-induced KDR phosphorylation [1]: ≥ 50 % inhibition at 10 µM
Binder: Ac-AQGDYVYWEIIELTGATDHTPPGGGK-NH2 [P11-D]

- inhibition of VEGF-induced KDR phosphorylation [1]: ≥ 50 % inhibition at 10 µM
B5: P8-D (peptide)
peptide: Ac-GDPDTCTMWGDSGRWYCFPADPGGGK-NH2
modifications: disulfide 6-17
SMILES: CSCC[C@@H]1NC(=O)[C@H]([C@@H](C)O)NC(=O)[C@@H](NC(=O)[C@@H](NC(=O)[C@H](CC(=O)O)NC(=O)[C@@H]2CCCN2C(=O)[C@H](CC(=O)O)NC(=O)CNC(C)=O)[C@@H](C)O)CSSC[C@@H](C(=O)N[C@@H](Cc2ccccc2)C(=O)N2CCC[C@H]2C(=O)N[C@@H](C)C(=O)N[C@@H](CC(=O)O)C(=O)N2CCC[C@H]2C(=O)NCC(=O)NCC(=O)NCC(=O)N[C@@H](CCCCN)C(N)=O)NC(=O)[C@H](Cc2ccc(O)cc2)NC(=O)[C@H](Cc2c[nH]c3ccccc23)NC(=O)[C@H](CCCNC(=N)N)NC(=O)CNC(=O)[C@H](CO)NC(=O)[C@H](CC(=O)O)NC(=O)CNC(=O)[C@H](Cc2c[nH]c3ccccc23)NC1=O

- IC50, receptor activation assay [1]: 100 nM
- % inhibition of 125I-VEGF binding [2]: 104%
- % inhibition of 125I-VEGF binding [3]: 81%
B6: P12-XB (peptide)
peptide: Ac-AGPTWCEDDWYYCWLFGTGGGK([AEEA-AEEA-Biotin])-NH2
modifications: disulfide 6-13
SMILES: CC(=O)N[C@@H](C)C(=O)NCC(=O)N1CCC[C@H]1C(=O)N[C@H](C(=O)N[C@@H](Cc1c[nH]c2ccccc12)C(=O)N[C@H]1CSSC[C@@H](C(=O)N[C@@H](Cc2c[nH]c3ccccc23)C(=O)N[C@@H](CC(C)C)C(=O)N[C@@H](Cc2ccccc2)C(=O)NCC(=O)N[C@H](C(=O)NCC(=O)NCC(=O)NCC(=O)N[C@@H](CCCCNC(=O)COCCOCCNC(=O)COCCOCCNC(=O)CCCC[C@@H]2SC[C@@H]3NC(=O)N[C@@H]32)C(N)=O)[C@@H](C)O)NC(=O)[C@H](Cc2ccc(O)cc2)NC(=O)[C@H](Cc2ccc(O)cc2)NC(=O)[C@H](Cc2c[nH]c3ccccc23)NC(=O)[C@H](CC(=O)O)NC(=O)[C@H](CC(=O)O)NC(=O)[C@H](CCC(=O)O)NC1=O)[C@@H](C)O
